Changes are numbered by the printed parent chain. Numbers in names are those of the source.

The values that follow come from PMC6451127.

First the molecules themselves.
B1: AtMAPDA (Arabidopsis thaliana; H65A) (protein)
chain: MEWIQSLPKIELHAHLNGSIRDSTLLELARVLGEKGVIVFADVEHVIQKNDRSLVEVFKLFDLIAKLTTDHKTVTRITREVVEDFALENVVYLELRTTPKRSDSIGMSKRSYMEAVIQGLRSVSEVDIDFVTASDSQKLHNAGDGIGRKKIYVRLLLSIDRRETTESAMETVKLALEMRDVGVVGIDLSGNPLVGEWSTFLPALQYAKDNDLHITLHCGEVPNPKEIQAMLDFKPHRIGHACFFKDEDWTKLKSFRIPVEICLTSNIVTKSISSIDIHHFADLYNAKHPLILCTDDFGVFSTSLSNEYALAVRSLGLSKSETFALARAAIDATFAEDEVKQQLRFIFDSASPEHV
B2: AtMAPDA (Arabidopsis thaliana; K100A) (protein)
chain: B1 chain with A65H, K100A
B3: AtMAPDA (Arabidopsis thaliana; T97A) (protein)
chain: B1 chain with A65H, T97A
B4: AtMAPDA (Arabidopsis thaliana; N17A) (protein)
chain: B1 chain with N17A, A65H
B5: AtMAPDA (Arabidopsis thaliana; T98A) (protein)
chain: B1 chain with A65H, T98A
B6: AtMAPDA (Arabidopsis thaliana) (protein)
chain: B1 chain with A65H

Substrate in the first data set: CNc1ncnc2c1ncn2[C@@H]1O[C@H](COP(=O)(O)O)[C@@H](O)[C@H]1O
Description: purified protein. The following applies: 20 mM potassium phosphate pH 7.2, 25 °C. It counts as biochemical, Arabidopsis thaliana.
As a reminder, the Km is the concentration of substrate that gives half-maximal velocity. As to B1, the Km was determined as 5.51 µM.

Regarding B2, the Km is 6.89 µM.

On to B3, for which the Km came out at 8.94 µM.

B4: the Km was determined as 7.12 µM.

Take B5: the Km turned out to be 4.52 µM.

The same data set, now with this note: 20 mM potassium phosphate pH 7.2, 25 °C, 250 nM enzyme.
Turning to B6, the Km was 4.14 µM.
